# According to PMC3257248, “Wnt4 Participates in the Formation of Vertebrate Neuromuscular Junction” (PLoS ONE, 2012):
# T1: MuSK (muscle specific kinase), full length (rat, UniProt Q62838 22-868)
# T1 sequence (looked up): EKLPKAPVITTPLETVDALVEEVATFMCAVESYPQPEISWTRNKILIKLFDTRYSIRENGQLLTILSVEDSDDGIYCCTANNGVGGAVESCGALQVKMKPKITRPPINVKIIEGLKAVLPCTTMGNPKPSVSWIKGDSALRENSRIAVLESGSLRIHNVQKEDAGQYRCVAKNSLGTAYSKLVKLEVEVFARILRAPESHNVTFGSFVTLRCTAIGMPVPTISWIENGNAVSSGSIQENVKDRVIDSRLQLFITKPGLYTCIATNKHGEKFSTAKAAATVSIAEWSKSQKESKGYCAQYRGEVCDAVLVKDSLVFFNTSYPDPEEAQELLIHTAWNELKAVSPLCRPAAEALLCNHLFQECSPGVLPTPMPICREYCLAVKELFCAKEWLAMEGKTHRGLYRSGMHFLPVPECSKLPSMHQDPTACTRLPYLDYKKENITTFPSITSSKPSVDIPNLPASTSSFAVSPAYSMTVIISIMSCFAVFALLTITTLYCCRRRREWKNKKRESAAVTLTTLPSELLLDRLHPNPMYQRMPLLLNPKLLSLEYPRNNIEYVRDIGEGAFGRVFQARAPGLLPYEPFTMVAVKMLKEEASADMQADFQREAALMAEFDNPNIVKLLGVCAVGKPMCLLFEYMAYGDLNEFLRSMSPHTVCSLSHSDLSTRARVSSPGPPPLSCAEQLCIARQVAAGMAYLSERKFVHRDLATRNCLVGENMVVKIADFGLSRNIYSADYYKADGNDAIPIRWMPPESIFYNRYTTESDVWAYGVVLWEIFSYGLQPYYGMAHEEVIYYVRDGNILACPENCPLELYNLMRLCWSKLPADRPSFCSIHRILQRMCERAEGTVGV
# Target: T1, MuSK (muscle specific kinase), full …
# Experiment: cell-based or functional assay
binder,measurement,value
"HA-tagged Wnt4 (ligand, UniProt P22724 23-351, looked up) SNWLYLAKLSSVGSISEEETCEKLKGLIQRQVQMCKRNLEVMDSVRRGAQLAIEECQYQFRNRRWNCSTLDSLPVFGKVVTQGTREAAFVYAISSAGVAFAVTRACSSGELEKCGCDRTVHGVSPQGFQWSGCSDNIAYGVAFSQSFVDVRERSKGASSSRALMNLHNNEAGRKAILTHMRVECKCHGVSGSCEVKTCWRAVPPFRQVGHALKEKFDGATEVEPRRVGSSRALVPRNAQFKPHTDEDLVYLEPSPDFCEQDIRSGVLGTRGRTCNKTSKAIDGCELLCCGRGFHTAQVELAERCGCRFHWCCFVKCRQCQRLVEMHTCR","MuSK tyrosine phosphorylation (pTyr blot of HA immunoprecipitates, +Wnt4/-Wnt4 ratio) in HEK 293T cells cotransfected with HA-MuSK with or without Wnt4-HA",2 fold
